# Source: US11230719B2, “Retroviral vector having immune-stimulating activity” (DENOVO BIOPHARMA LLC, priority 2014, dated 2022)
# How the values were obtained:
# [1] = tested on: HA-L2g cells transduced with pBA9b-hIFNg-yCD2 vector; test: MTS cell viability of HA-L2g cells transduced with pBA9b-hIFNg-yCD2; format: cell-based, human
# Procedure: The concentration PALA required to kill HA-L2g cells transduced with pBA9b-hIFNg-yCD2 vector is determined. Cells are seeded at 1e3 cells in 96-well plates the day before. At 24 hour post cell seeding, PALA at 1, 10, 50 and 100 μM are added to the culture for 4 consecutive days followed MTS assay to determine the cell viability. […] A range of cytosine concentrations are also determined (0.2, 1, 5 10 mM) in culture by performing the same experiment described above.
# [2] = tested on: TGFβ1, 2 and 3; test: TGFβ1, 2 and 3 gene expression (Taqman) in cancer cell lines before and after IFNγ treatment; format: cell-based, human; conditions: panel of cancer cell lines including glioma
# From the text: A panel of cancer cell lines including glioma cell lines were surveyed for their TGFβ1, 2 and 3 expression before and after IFNγ treatment using human TGF isoform-specific Taqman primers (Life Technology). […] Some expression more TGFβ1 and others express more TGFβ2. In all cases, TGFβ3 expression is low. In contrast to IDO1 and PDL1, TGFβ1, 2 and 3 expression is not induced by IFNγ.
# [3] = tested on: IDO1; test: IDO1 protein expression in glioma cell lines after IFNγ induction; format: cell-based, human; conditions: panel of glioma cell lines; level of induction varies
# From the text: A panel of glioma cell lines were surveyed for their IDO1 expression after IFNγ induction. […] GAPDH (anti-human GAPDH at 1:500, Cell Signaling) detection was included as a loading control.
# [4] = tested on: PDL1; test: PD-L1 cell surface expression in cancer cell lines before and after IFNγ induction; format: cell-based, human; conditions: panel of cancer cell lines including glioma
# From the text: Its expression can be further induced by IFNγ. A panel of cancer cell lines including glioma cell lines is surveyed for their PDL1 expression (anti-human PD-L1 antibody, eBioscience) before and after IFNγ induction.
# [5] = tested on: HT1080; test: hIFNg-induced MHC Class I upregulation in HT1080 cells (flow cytometry); format: cell-based, human; conditions: MFI
# Procedure: (§1) To verify the bioactivity of recombinant hIFNg and mIFNg produced from the virus producer cell, upregulation of MHC Class I cell surface expression by flow cytometry was performed. Supernatant of known IFNg concentration were incubated with species-matched mouse colon carcinoma cell line, CT-26 or human fibrosarcoma cell line, HT1080. The degree of upregulation measured by mean fluorescent intensity (MFI) was compared to a standard which are purified recombinant protein expressed from E. coli. […] The recombinant hIFNg produced from the virus producer cells are 3-5 fold higher than that produced from E. coli (FIG. 2B). The difference is likely due to the differences in amino acid composition as well as glycosylation pattern.
# [6] = tested on: CTLL-2; test: IL-2 bioactivity, CTLL-2 proliferation (3H-thymidine incorporation); format: cell-based, mouse; conditions: produced by HA-L2 cells; vs recombinant IL-2 from E. coli
# Procedure: CTLL-2 cell growth depends greatly on the presence of IL-2. The bioactivity of IL-2 is determined by the level of ^3H-thymidine incorporation into the DNA of proliferating cells. […] In addition, the level of CD expression from pBA9b-IFNg-yCD2 transduced HA-L2 cells is also detected by immunoblotting using an antibody against CD.
# [7] = tested on: CT-26; test: mIFNg-induced MHC Class I upregulation in CT-26 cells (flow cytometry); format: cell-based, mouse; conditions: vs purified recombinant protein from E. coli
# Procedure: as §1
molecule,measurement,setting,value
"O=C(O)C[C@H](NC(=O)CP(=O)(O)O)C(=O)O [PALA, N-(phosphonacetyl)-L-aspartate]",cell viability with PALA,"[1]; 1, 10, 50 and 100 μM, 4 consecutive days",sensitive to PALA at 10 μM and plateau at 50 μM
Nc1cc[nH]c(=O)n1 [cytosine],cell viability with cytosine,"[1]; 0.2, 1, 5, 10 mM",can tolerate cytosine in all concentrations tested
"IFNγ: interferon gamma used to induce IDO1 and PDL1 expression in cell lines (protein, UniProt P01579 24-161, looked up) Interferon gamma: QDPYVKEAENLKKYFNAGHSDVADNGTLFLGILKNWKEESDRKIMQSQIVSFYFKLFKNFKDDQSIQKSVETIKEDMNVKFFNSNKKKRDDFEKLTNYSVTDLNVQRKAIHELIQVMAELSPAAKTGKRKRSQMLFRG","TGFβ1, 2 and 3 expression induced by IFNγ",[2],not induced
same,IDO1 expression after IFNγ induction,[3],upregulated
same,PDL1 expression further induced by IFNγ,[4],"most of the cells lines, but not all, tested here are responsive"
"recombinant hIFNg produced from the virus producer cells: human IFNg in supernatant of virus producer cells (protein, UniProt P01579 24-161, looked up) Interferon gamma: QDPYVKEAENLKKYFNAGHSDVADNGTLFLGILKNWKEESDRKIMQSQIVSFYFKLFKNFKDDQSIQKSVETIKEDMNVKFFNSNKKKRDDFEKLTNYSVTDLNVQRKAIHELIQVMAELSPAAKTGKRKRSQMLFRG",bioactivity higher than that produced from E. coli,[5],3-5 fold
"mIL-2: recombinant mouse IL-2 produced by the HA-L2 cells (protein, UniProt P04351 21-169, looked up) Interleukin-2: APTSSSTSSSTAEAQQQQQQQQQQQQHLEQLLMDLQELLSRMENYRNLKLPRMLTFKFYLPKQATELKDLQCLEDELGPLRHVLDLTQSKSFQLEDAENFISNIRVTVVKLKGSDNTFECQFDDESATVVDFLRRWIAFCQSIISTSPQ",IL-2 bioactivity,[6],comparable
"recombinant mIFNg produced by the virus producer cells: mouse IFNg in supernatant of virus producer cells (protein, UniProt P01580 23-155, looked up) Interferon gamma: HGTVIESLESLNNYFNSSGIDVEEKSLFLDIWRNWQKDGDMKILQSQIISFYLRLFEVLKDNQAISNNISVIESHLITTFFSNSKAKKDAFMSIAKFEVNNPQVQRQAFNELIRVVHQLLPESSLRKRKRSRC","bioactivity (MHC Class I upregulation, MFI)",[7],comparable to that of recombinant mIFNg produced by E. coli
